From patent US20230212305A1, “ANTI-ABCG2 ANTIBODIES AND USES THEREOF” (Kenjockety Biotechnology, Inc., priority 2020, published 2023)
Positions count from the first letter of the chain named.

B1: G2.643: Anti-G2 antibody raised in rats (antibody, V domains shown)
VH: VNLVESGPELVKPGTSVKISCKASGYRFTSYYVHWVKQRPGQGLEWIGWIFPGSDNTKYNEKFKGKATLTADTSSSTAYMQLSSLTSEDSAVYFCASIYYGYDGTLYFDYWGQGTSVTVSS
VL: DIVMTQSHTFMSTSVGDRVSVTCKASQNVGNNVAWYQQKPGQSPNALIYSASYRYSGVPDRFTGSGSGTDFTLTISNVQSEDLAEYFCQQYDRYPLTFGGGTKLEIK
B2: G2.420 rat: anti-ABCG2 antibody raised in rat (antibody, V domains shown)
VH: SVQLMESGPGLVQPSQTLSLTCTVSGFSLNSYNVNWVRQPPGKGLEWIAAISSGGSTYYNSVLKSRLSITRDTSKSQVFLKMNSLQTEDTAMYFCARSGYYSSYMNWGQGVMVTVSS
VL: DVVMTQTPPTLSATIGQSVSISCRSSQSLLHSTGNTYLNWLLQRPGQPPQLLIYLVSRLEYGVPNRFSGSGSGTDFTLKISGVEAEDLGVYYCAQSTHALNTFGAGTKLELK
B3: G2.641 rat: anti-ABCG2 antibody raised in rat (antibody, V domains shown)
VH: EVKLEESGGGLVQPGRSLKLSCAASGFTFSRFYMAWVRQAPTKGLEWVAHISHGGDTTYYRDSVKGRFTISRDNAKSTLFLQMDSLRSEDTATYYCTTSAAPWNYVMDGWGLGASVTVSS
VL: DIQMTQSPSLLSASVGDRVTLTCKGSQNINNFLAWYQQKLGEAPKLLIYKTNSLHTGIPSRFSGSGSGTDYTLTISSLHSEDLATYYCYQYNNGYTFGAGTKLELK
B4: G2.173 mouse: anti-ABCG2 antibody raised in mouse, listed in Table 2 (antibody, V domains shown)
VH: QVQLQQSGADLVRPGASVKLSCTASGFNIKDDYVHWVKQRPEQGLEWIGRIDPANGNTRYAPKFRGKATMTADTSSNTAYLQLSSLTSADTAVYYCSPPLWVGGFAYWGQGTLVTVSS
VL: DVVMTQTPLSLPVSLGDQASISCRSSQSLVHSDVNTYLHWYLQRPGQSPKLLIYKVSNRFSGVPDRFSGSGSGTDFTLKISRVESEDLGIYFCSQTTHVPYTFGGGTKLEIK
B5: G2.173 Humanized 3: humanized version of anti-ABCG2 antibody G2.173 (antibody, V domains shown)
VH: EVQLVQSGAEVKKPGASVKVSCKASGFNIKDDYVHWVRQAPGQGLEWIGRIDPASGNTRYAPKFRGRATMTADTSISTAYMELSRLRSDDTAVYYCSPPLWVGGFAYWGQGTLVTVSS
VL: B4 VL with T7S, S14T, D17Q, Q18P, L42Q, K50R, S85A, L88V, I90V
B6: G2.173 Humanized 1: humanized version of anti-ABCG2 antibody G2.173 (antibody, V domains shown)
VH: B5 VH with S55N
VL: B4 VL with T7S, S14T, D17Q, Q18P, L42Q, K50R, S85A, L88V, I90V
B7: G2.173 Humanized 2: humanized version of anti-ABCG2 antibody G2.173 (antibody, V domains shown)
VH: B5 VH with S55Q
VL: B4 VL with T7S, S14T, D17Q, Q18P, L42Q, K50R, S85A, L88V, I90V
B8: G2.642 rat: anti-ABCG2 antibody raised in rat (antibody, V domains shown)
VH: QIQLVQSGAELVKPGASVKLSCKTSGFTFSSNYISWLRQKPRQSLEWIAWIYSGTGGTYYNQKFTGKAQLTIDTSSNTAYMQLSSLTSEDSAIYYCARHVGLRYWYFDVWGAGTSVTVSS
VL: DIVLTQSPASLTVSLGQRATISCRASESVDSNGNSFMHWYQQKPGQSPKVLIYRASNLESGVPARFSGSGSRTDFTLTINPVEADDVATYYCQQSNEDPWTFGGGTKLEIKREF
B9: G2.318 rat: anti-ABCG2 antibody raised in rat (antibody, V domains shown)
VH: EVKLLESGPGLVKPSQSLSLTCSVTGYTITSGYDWSWIRKFPGNKMEWMGYISYSGWTNYNPSLRSRISISRDTSKNQFFLQLNSVTTEDTATYYCARVRGYNPFAYWGQGTLVTVSS
VL: DIVMTQSPSLLSASVGDRVTLSCKAGQNINNYLAWYQQKLGEAPKLLIYNANSLQTGIPSRFSGSGSGTDFTLTISSLQPEDVATYFCQQYNSWTTFGSGTKLEIK
B10: G2.630 rat: anti-ABCG2 antibody raised in rat (antibody, V domains shown)
VH: B9 VH with K3Q, L5V, S36T, W57F, S71T, A97T, V99T
VL: B9 VL with I2V, Q27R, E42K, A51T
B11: G2.320 rat: anti-ABCG2 antibody raised in rat (antibody, V domains shown)
VH: EVQLEESGPGLVKPSQSLSLTCSVTGYTITSGYDWTWIRKFPGNKMEWMGYISYSGFTNYNPSLRSRISITRDTSKNQFFLQLNSVTTEDTATYYCTRTRGYNPFAYWGQGASVSSAS
VL: B9 VL with Q27R, E42K, A51T

system: 293T_ABCG2_OX cells; experiment: not given; type: cell-based, human; details: not given
Procedure: Cytotoxicity Assays. The effect of antibodies on topotecan cytotoxicity was evaluated on 293T_ABCG2_OX cells, 293T cells stably transfected to express ABCG2. Cells were plated in 0.05 mL of Assay Media (DMEM+10% FBS) at 5000 cells/well in white, flat bottom 96-well tissue culture plates. Topotecan was prepared at 2× final assay concentration by serial dilution from 200 uM in assay media containing test antibodies or control antibodies at 100 ug/mL (2× final concentration), or Fumitremorgin C, a small molecule ABCG2 inhibitor at 20 uM (2× final concentration). An equivalent volume (0.05 mL) of the topotecan/antibody mixture was added to the 293T_ABCG2_OX cells in 96-well plates. The plates were then incubated at 37° C., in 5% CO2. After 72-96 hr plates were equilibrated to room temperature and cell viability assessed using Promega® CellTiter-Glo® Luminescent Cell Viability Assay according to the manufacturer's recommended protocol. Luminescence was measured on a Molecular Devices® FlexStation® 3 Multi-Mode Microplate Reader and data analyzed using GraphPad Prism 8.0 software. Half maximal inhibitory concentration (1050) is the concentration of drug (topotecan or other chemotherapy cytotoxic agent) where the response (cell growth) is reduced by 50%.

Molecule	effect on topotecan cytotoxicity on 293T_ABCG2_OX cells
B1	significantly increased the cytotoxic activity of topotecan
B2	significantly increased the cytotoxic activity of topotecan

same assay, conditions: cell killing by topotecan on 293T_ABCG2_OX cells; viability relative to IgG control

Molecule	Killing
B3	++ (viability ≥10% and <30% of IgG control)
B4	− (≥75% of IgG control)
B5	− (≥75% of IgG control)
B6	− (≥75% of IgG control)
B7	− (≥75% of IgG control)
B8	− (≥75% of IgG control)
B9	+ (viability ≥30% and <50% of IgG control)
B10	+ (viability ≥30% and <50% of IgG control)
B11	+ (viability ≥30% and <50% of IgG control)

system: cynomolgus ABCG2; experiment: Flow cytometry binding to 293T cells overexpressing cynomolgus ABCG2; parameters: key to Cynomolgus ABCG2 binding: binding=“+”; non-significant binding=“−”; details: not given
Procedure: (§1) Cell Binding Assays. Antibody binding to cells was evaluated by flow cytometry. 293T cells stably transfected to express human or cynomolgus ABCG2 (293T_ABCG2_OX) were washed once in flow cytometry buffer (PBS+2% FBS+0.02% sodium azide), resuspended at 2×10^6 cells/mL in flow cytometry buffer, and dispensed into 96-well microtiter plates at 0.1 mL/well. Recombinant antibodies were added to cells at 5 ug/mL for initial binding confirmation, or serially diluted from 100 ug/mL in flow cytometry buffer. After incubating cells on ice for 30 min, cells were washed twice with flow cytometry buffer. Bound antibody was detected with PE-labeled F(ab′)2 fragment goat anti-human IgG (Jackson ImmunoResearch) and evaluated on an Attune NxT flow cytometer. EC50 is calculated to be the concentration of antibody that gives half maximal response.

cynomolgus ABCG2, sequence (as listed by the source): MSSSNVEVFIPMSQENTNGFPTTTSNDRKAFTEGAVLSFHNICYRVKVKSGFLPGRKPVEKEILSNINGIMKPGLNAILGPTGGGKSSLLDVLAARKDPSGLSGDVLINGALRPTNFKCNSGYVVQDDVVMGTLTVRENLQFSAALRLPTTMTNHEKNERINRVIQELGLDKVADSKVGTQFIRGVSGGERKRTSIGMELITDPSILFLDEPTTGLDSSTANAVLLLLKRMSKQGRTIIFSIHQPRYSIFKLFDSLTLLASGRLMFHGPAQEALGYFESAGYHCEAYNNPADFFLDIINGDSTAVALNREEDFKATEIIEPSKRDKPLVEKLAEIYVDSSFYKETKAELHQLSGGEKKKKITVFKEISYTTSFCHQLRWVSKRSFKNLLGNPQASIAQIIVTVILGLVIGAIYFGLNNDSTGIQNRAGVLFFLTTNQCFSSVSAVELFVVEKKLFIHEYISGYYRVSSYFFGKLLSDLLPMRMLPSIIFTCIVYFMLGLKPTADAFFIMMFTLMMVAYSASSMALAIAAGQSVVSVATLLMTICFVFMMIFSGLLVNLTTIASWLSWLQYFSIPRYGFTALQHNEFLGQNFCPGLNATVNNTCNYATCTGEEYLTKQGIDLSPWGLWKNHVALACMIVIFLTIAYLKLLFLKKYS

Molecule	Cynomolgus ABCG2 binding
B3	+
B4	−
B5	−
B6	−
B7	−
B2	+
B8	−
B9	+
B10	+
B11	+

same assay, conditions: in words; FIGS. 7-11, 21

Molecule	binding to 293T cells overexpressing cynomolgus ABCG2
B1	strong binding

same assay, conditions: in words; FIGS. 7-11, 21; listed as G.643

Molecule	binding to 293T cells overexpressing cynomolgus ABCG2
B1	did not show significant binding

target: T1, ABCG2 (Homo sapiens, UniProt Q9UNQ0); experiment: Flow cytometry binding to 293T cells overexpressing human ABCG2 (293T_ABCG2_OX); parameters: key to Binding by FACS: binding=“+”; non-significant binding=“−”; details: 293T_ABCG2_OX cells
T1 construct: expressed in transfected cells
T1 sequence (Q9UNQ0 1-655): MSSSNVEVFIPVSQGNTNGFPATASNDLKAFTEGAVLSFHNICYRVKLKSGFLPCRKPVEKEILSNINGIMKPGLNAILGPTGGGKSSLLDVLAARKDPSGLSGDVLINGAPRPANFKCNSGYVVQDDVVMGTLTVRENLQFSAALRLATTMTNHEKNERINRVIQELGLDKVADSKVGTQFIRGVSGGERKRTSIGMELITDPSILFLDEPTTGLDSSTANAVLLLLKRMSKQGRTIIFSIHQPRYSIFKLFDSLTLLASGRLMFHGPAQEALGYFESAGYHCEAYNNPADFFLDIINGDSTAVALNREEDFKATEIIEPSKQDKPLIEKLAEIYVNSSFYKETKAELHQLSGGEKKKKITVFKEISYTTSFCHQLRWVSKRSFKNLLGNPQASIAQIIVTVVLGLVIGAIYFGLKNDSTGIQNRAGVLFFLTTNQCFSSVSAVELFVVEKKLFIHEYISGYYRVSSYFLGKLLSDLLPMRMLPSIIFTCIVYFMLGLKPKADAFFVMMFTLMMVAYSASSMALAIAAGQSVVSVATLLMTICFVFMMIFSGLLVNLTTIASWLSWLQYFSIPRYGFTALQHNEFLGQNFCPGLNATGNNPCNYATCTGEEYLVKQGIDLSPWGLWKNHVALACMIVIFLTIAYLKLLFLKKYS
Procedure: as §1

Molecule	Binding by FACS
B3	+
B4	+
B5	+
B6	+
B7	+
B2	+
B8	+
B9	+
B10	+
B11	+

same assay, conditions: 293T_ABCG2_OX cells; read-out: Affinity for human ABCG2

Molecule	Kd
B9	41 nM
B11	58 nM

same assay, conditions: in words; FIGS. 7-11, 21

Molecule	binding to 293T cells overexpressing human ABCG2
B1	strong binding

same assay, conditions: in words; FIGS. 7-11, 21; listed as G.643

Molecule	binding to 293T cells overexpressing human ABCG2
B1	did not show significant binding

target: T1, ABCG2; experiment: not given; type: cell-based; details: not given
Procedure: 293T_ABCG2_OX cells were washed several times and aliquoted into 96-well plates as 50 μl aliquots/well at a cell density of 2×10e6 cells per ml in phenol red-free DMEM. Cells were mixed with 50 μl antibodies or the small molecule inhibitors of ABCG2:-fumitremorgin C (FTC), or its tetracyclic analogue K0143, with a final concentration of 1 μM. Cells were then incubated in the presence of 2.5 μM Mitoxantrone 1 h at 37° C. The cells were subsequently washed twice and finally resuspended in […] PBS. Mitoxantrone fluorescence was measured using excitation at 635 nm and emission at 647 nm. Protocols was measuring efflux blockade are found in Szabo E, et al., PLoS One. 2018 Jan. 17; 13(1):e0190629; Deeken J F, et al., Mol Pharmacol. 2009 November; 76(5):946-56).

Molecule	Block Efflux	efflux inhibition activity
B3	++	
B4	−	
B5	−	
B6	−	
B7	−	
B2	+	
B8	−	
B9	+	strong efflux inhibition activity
B10	+	
B11	+	
